Here are results for twelve molecules from patent US20260008857A1 (FLAGSHIP PIONEERING INNOVATIONS VI, published 2026).

A value given as a limit tells only on which side of the number the result lay.

A word on the Kd: it is the constant that tells how readily two partners part at equilibrium. A lower Kd goes with a tighter complex. What is called koff is the first-order rate constant of dissociation. Broadly, the kon is the second-order rate constant of association.

B1: AB-13b (antibody, human IgG4 S228P, kappa)
heavy: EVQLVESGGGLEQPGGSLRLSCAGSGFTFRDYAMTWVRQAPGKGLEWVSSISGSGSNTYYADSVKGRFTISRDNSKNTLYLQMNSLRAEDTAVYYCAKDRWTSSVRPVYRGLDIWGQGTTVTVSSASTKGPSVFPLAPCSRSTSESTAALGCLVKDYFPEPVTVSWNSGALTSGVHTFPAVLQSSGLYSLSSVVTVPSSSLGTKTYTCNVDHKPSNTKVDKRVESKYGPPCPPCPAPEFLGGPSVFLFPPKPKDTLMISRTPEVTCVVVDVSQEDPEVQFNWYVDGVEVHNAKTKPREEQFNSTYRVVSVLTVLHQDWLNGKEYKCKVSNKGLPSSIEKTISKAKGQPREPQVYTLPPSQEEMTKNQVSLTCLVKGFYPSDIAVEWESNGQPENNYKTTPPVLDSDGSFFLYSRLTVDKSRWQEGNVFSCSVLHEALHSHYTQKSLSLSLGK
light: DIVMTQSPLSLPVTPGEPASISCRSSQSLLYSHGYNYLDWYLQKSGQSPQLLIYLASNRASGVPDRFSGSGSGTDFTLKISRVEAEDVGFYYCMQSLYTPYTFGQGTKLEIKRTVAAPSVFIFPPSDEQLKSGTASVVCLLNNFYPREAKVQWKVDNALQSGNSQESVTEQDSKDSTYSLSSTLTLSKADYEKHKVYACEVTHQGLSSPVTKSFNRGEC
notes: hIgG4 LS variant, kappa
B2: AB-13a (antibody, human IgG4 S228P, kappa)
heavy: EVQLVESGGGLEQPGGSLRLSCAGSGFTFRDYAMTWVRQAPGKGLEWVSSISGSGSNTYYADSVKGRFTISRDNSKNTLYLQMNSLRAEDTAVYYCAKDRWTSSVRPVYRGLDIWGQGTTVTVSSASTKGPSVFPLAPCSRSTSESTAALGCLVKDYFPEPVTVSWNSGALTSGVHTFPAVLQSSGLYSLSSVVTVPSSSLGTKTYTCNVDHKPSNTKVDKRVESKYGPPCPPCPAPEFLGGPSVFLFPPKPKDTLYITREPEVTCVVVDVSQEDPEVQFNWYVDGVEVHNAKTKPREEQFNSTYRVVSVLTVLHQDWLNGKEYKCKVSNKGLPSSIEKTISKAKGQPREPQVYTLPPSQEEMTKNQVSLTCLVKGFYPSDIAVEWESNGQPENNYKTTPPVLDSDGSFFLYSRLTVDKSRWQEGNVFSCSVMHEALHNHYTQKSLSLSLGK
light: DIVMTQSPLSLPVTPGEPASISCRSSQSLLYSHGYNYLDWYLQKSGQSPQLLIYLASNRASGVPDRFSGSGSGTDFTLKISRVEAEDVGFYYCMQSLYTPYTFGQGTKLEIKRTVAAPSVFIFPPSDEQLKSGTASVVCLLNNFYPREAKVQWKVDNALQSGNSQESVTEQDSKDSTYSLSSTLTLSKADYEKHKVYACEVTHQGLSSPVTKSFNRGEC
notes: hIgG4 YTE variant, kappa
B3: Reference Antibody (antibody, human IgG4 S228P, kappa, V domains shown)
VH: EVQLVESGGGLEQPGGSLRLSCAGSGFTFRDYAMTWVRQAPGKGLEWVSSISGSGGNTYYADSVKGRFTISRDNSKNTLYLQMNSLRAEDTAVYYCAKDRLSITIRPRYYGLDVWGQGTTVTVSS
VL: DIVMTQSPLSLPVTPGEPASISCRSSQSLLYSIGYNYLDWYLQKSGQSPQLLIYLGSNRASGVPDRFSGSGSGTDFTLKISRVEAEDVGFYYCMQALQTPYTFGQGTKLEIKR
B4: AB-13d (antibody, human IgG1, kappa)
heavy: not shown
light: DIVMTQSPLSLPVTPGEPASISCRSSQSLLYSHGYNYLDWYLQKSGQSPQLLIYLASNRASGVPDRFSGSGSGTDFTLKISRVEAEDVGFYYCMQSLYTPYTFGQGTKLEIKRTVAAPSVFIFPPSDEQLKSGTASVVCLLNNFYPREAKVQWKVDNALQSGNSQESVTEQDSKDSTYSLSSTLTLSKADYEKHKVYACEVTHQGLSSPVTKSFNRGEC
notes: hIgG1, kappa
B5: AB-7c (antibody, human IgG4 S228P, kappa, V domains shown)
VH: EVQLVESGGGLEQPGGSLRLSCAGSGFTFRDYAMTWVRQAPGKGLEWVSSISGSGSTTYYADSVKGRFTISRDNSKNTLYLQMNSLRAEDTAVYYCAKDRLTASVRPIYVGLDVWGQGTTVTVSS
VL: DIVMTQSPLSLPVTPGEPASISCRSSQSLLYSEGYNYLDWYLQKSGQSPQLLIYLASNRASGVPDRFSGSGSGTDFTLKISRVEAEDVGFYYCMQTLKTPYTFGQGTKLEIKR
notes: hIgG4 WT, kappa
B6: AB-5c (antibody, human IgG4 S228P, kappa)
heavy: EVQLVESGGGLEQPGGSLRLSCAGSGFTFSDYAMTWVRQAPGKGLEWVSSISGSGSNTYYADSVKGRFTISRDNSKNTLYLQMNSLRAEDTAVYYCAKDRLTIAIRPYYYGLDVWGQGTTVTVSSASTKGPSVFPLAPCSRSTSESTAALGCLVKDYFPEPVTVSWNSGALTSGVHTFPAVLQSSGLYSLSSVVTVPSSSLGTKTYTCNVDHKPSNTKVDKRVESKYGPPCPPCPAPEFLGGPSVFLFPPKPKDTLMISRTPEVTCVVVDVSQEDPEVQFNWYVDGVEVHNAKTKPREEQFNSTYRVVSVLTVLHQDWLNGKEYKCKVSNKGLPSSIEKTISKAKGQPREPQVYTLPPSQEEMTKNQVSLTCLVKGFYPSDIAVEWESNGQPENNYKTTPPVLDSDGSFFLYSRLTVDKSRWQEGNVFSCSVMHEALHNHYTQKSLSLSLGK
light: DIVMTQSPLSLPVTPGEPASISCRSSQSLDYSIGYNYLDWYLQKSGQSPQLLIYLASNRASGVPDRFSGSGSGTDFTLKISRVEAEDVGFYYCMQALQTPYTFGQGTKLEIKRTVAAPSVFIFPPSDEQLKSGTASVVCLLNNFYPREAKVQWKVDNALQSGNSQESVTEQDSKDSTYSLSSTLTLSKADYEKHKVYACEVTHQGLSSPVTKSFNRGEC
notes: hIgG4 WT, kappa
B7: AB-11c (antibody, human IgG4 S228P, kappa, V domains shown)
VH: EVQLVESGGGLEQPGGSLRLSCAGSGFTFRDYAMTWVRQAPGKGLEWVSSISGSGTNTYYADSVKGRFTISRDNSKNTLYLQMNSLRAEDTAVYYCAKDRLSVSTRPKYYGLDVWGQGTTVTVSS
VL: DIVMTQSPLSLPVTPGEPASISCRSSQSLDYSYGYNYLDWYLQKSGQSPQLLIYLASNRASGVPDRFSGSGSGTDFTLKISRVEAEDVGFYYCMQSLHTPYTFGQGTKLEIKR
notes: hIgG4 WT, kappa
B8: AB-2c (antibody, human IgG4 S228P, kappa, V domains shown)
VH: EVQLVESGGGLEQPGGSLRLSCAGSGFTFRDYAMTWVRQAPGKGLEWVSSISGSGSNTYYADSVKGRFTISRDNSKNTLYLQMNSLRAEDTAVYYCARDRLTAAVRPYYYGLDVWGQGTTVTVSS
VL: DIVMTQSPLSLPVTPGEPASISCRSSQSLDYSSGYNYLDWYLQKSGQSPQLLIYLASNRASGVPDRFSGSGSGTDFTLKISRVEAEDVGFYYCMQSLQTPYTFGQGTKLEIKR
notes: hIgG4 WT, kappa
B9: AB-8c (antibody, human IgG4 S228P, kappa, V domains shown)
VH: EVQLVESGGGLEQPGGSLRLSCAGSGFTFRDYAMTWVRQAPGKGLEWVSSISGSGSNTYYADSVKGRFTISRDNSKNTLYLQMNSLRAEDTAVYYCAKDRLTASVRPNYYGLDVWGQGTTVTVSS
VL: DIVMTQSPLSLPVTPGEPASISCRSSQSLLYSEGYNYLDWYLQKSGQSPQLLIYLASNRASGVPDRFSGSGSGTDFTLKISRVEAEDVGFYYCMQSLTTPYTFGQGTKLEIKR
notes: hIgG4 WT, kappa
B10: AB-6c (antibody, human IgG4 S228P, kappa)
heavy: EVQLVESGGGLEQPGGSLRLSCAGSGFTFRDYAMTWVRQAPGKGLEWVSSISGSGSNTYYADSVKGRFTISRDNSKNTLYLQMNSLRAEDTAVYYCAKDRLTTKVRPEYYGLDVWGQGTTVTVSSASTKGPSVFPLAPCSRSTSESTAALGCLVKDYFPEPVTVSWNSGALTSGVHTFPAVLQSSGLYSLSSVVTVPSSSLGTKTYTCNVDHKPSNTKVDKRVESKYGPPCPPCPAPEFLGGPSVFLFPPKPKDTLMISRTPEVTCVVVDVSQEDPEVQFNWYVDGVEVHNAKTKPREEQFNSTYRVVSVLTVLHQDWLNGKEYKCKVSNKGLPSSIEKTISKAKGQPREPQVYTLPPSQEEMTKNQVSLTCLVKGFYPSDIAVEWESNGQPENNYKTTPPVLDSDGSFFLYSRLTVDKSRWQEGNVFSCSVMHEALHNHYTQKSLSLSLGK
light: DIVMTQSPLSLPVTPGEPASISCRSSQSLLYSIGYNYLDWYLQKSGQSPQLLIYLASNRASGVPDRFSGSGSGTDFTLKISRVEAEDVGFYYCMQSLQTPYTFGQGTKLEIKRTVAAPSVFIFPPSDEQLKSGTASVVCLLNNFYPREAKVQWKVDNALQSGNSQESVTEQDSKDSTYSLSSTLTLSKADYEKHKVYACEVTHQGLSSPVTKSFNRGEC
notes: hIgG4 WT, kappa
B11: AB-12c (antibody, human IgG4 S228P, kappa)
heavy: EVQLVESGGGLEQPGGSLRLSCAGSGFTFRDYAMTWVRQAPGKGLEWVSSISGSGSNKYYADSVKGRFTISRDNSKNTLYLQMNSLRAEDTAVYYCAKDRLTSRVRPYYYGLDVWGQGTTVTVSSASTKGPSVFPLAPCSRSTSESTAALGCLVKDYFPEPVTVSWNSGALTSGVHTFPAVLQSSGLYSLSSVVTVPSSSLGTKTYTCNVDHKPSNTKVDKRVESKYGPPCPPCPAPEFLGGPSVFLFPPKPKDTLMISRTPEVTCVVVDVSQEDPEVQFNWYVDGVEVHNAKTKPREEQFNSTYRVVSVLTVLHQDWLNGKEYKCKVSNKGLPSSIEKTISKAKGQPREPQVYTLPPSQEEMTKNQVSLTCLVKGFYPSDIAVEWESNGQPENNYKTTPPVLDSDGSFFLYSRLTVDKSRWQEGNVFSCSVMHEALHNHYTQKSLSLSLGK
light: DIVMTQSPLSLPVTPGEPASISCRSSQSLLYSQGYNYLDWYLQKSGQSPQLLIYLASNRASGVPDRFSGSGSGTDFTLKISRVEAEDVGFYYCMQSLFTPYTFGQGTKLEIKRTVAAPSVFIFPPSDEQLKSGTASVVCLLNNFYPREAKVQWKVDNALQSGNSQESVTEQDSKDSTYSLSSTLTLSKADYEKHKVYACEVTHQGLSSPVTKSFNRGEC
notes: hIgG4 WT, kappa
B12: AB-4c (antibody, human IgG4 S228P, kappa)
heavy: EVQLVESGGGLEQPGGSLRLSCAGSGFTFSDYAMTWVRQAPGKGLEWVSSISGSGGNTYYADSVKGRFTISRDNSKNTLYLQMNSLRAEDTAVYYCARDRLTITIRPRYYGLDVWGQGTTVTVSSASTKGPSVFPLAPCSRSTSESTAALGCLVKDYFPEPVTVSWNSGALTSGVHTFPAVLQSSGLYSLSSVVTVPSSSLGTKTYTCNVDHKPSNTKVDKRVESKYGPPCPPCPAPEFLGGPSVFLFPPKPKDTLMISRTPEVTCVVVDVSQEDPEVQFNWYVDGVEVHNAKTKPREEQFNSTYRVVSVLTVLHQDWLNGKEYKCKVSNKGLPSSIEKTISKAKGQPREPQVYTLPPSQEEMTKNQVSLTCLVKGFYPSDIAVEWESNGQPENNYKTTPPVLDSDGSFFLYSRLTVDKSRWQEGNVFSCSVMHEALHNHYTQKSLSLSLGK
light: DIVMTQSPLSLPVTPGEPASISCRSSQSLLYSTGYNYLDWYLQKSGQSPQLLIYLASNRASGVPDRFSGSGSGTDFTLKISRVEAEDVGFYYCMQALSTPYTFGQGTKLEIKRTVAAPSVFIFPPSDEQLKSGTASVVCLLNNFYPREAKVQWKVDNALQSGNSQESVTEQDSKDSTYSLSSTLTLSKADYEKHKVYACEVTHQGLSSPVTKSFNRGEC
notes: hIgG4 WT, kappa

The first experiment has as its target T1, IL-4Rα on human primary cells (primary B cells, whole blood B and T cells, PBMCs) (human, UniProt P24394 26-825).
T1 sequence (looked up): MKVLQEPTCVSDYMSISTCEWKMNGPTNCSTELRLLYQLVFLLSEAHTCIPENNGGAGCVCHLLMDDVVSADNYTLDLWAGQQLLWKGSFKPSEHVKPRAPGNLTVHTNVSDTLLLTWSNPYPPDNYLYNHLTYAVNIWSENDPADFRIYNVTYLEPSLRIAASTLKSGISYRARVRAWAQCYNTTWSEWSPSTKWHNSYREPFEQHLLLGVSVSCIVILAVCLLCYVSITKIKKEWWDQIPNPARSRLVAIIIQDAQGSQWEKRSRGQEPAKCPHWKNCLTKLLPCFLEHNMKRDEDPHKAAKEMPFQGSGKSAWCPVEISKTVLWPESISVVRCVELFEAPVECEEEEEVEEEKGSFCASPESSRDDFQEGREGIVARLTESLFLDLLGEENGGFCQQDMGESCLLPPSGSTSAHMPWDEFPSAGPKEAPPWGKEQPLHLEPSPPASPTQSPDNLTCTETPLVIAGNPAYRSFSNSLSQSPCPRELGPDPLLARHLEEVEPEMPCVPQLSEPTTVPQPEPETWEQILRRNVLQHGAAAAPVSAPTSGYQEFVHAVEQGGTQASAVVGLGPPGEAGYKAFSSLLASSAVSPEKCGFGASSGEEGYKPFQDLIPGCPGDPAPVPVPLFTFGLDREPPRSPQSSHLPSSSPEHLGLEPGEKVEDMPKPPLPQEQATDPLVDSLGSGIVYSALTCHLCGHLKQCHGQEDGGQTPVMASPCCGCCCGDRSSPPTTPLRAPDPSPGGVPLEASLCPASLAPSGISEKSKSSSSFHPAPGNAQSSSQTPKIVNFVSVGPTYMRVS
As to the kind of experiment: cell-based or functional assay.
With B1, the “Inhibition of CD23 Expression by Primary B cells (IC50), Donor 13” value (“Inhibition of CD23 Expression … Donor 13” for short) was determined as 30.1 nM; the “Inhibition of CD23 Expression by Primary B cells (IC50), Donor 52” value (shortened to “Inhibition of CD23 Expression … Donor 52”) was 34.4 nM; the “Inhibition of CD23 Expression by Primary B cells (IC50), Donor 53” value (“Inhibition of CD23 Expression … Donor 53” below) was 35.9 nM; the “Inhibition of CD23 Expression by Primary B cells (IC50), Donor 56” value (from here on “Inhibition of CD23 Expression … Donor 56”) was 54.2 nM.

In the case of B2, the “Inhibition of CD23 Expression … Donor 13” value was 27.5 nM; the “Inhibition of CD23 Expression … Donor 52” value amounted to 17.8 nM; the “Inhibition of CD23 Expression … Donor 53” value turned out to be 40.6 nM; the “Inhibition of CD23 Expression … Donor 56” value was determined as 54.4 nM.

B3: the “Inhibition of CD23 Expression … Donor 13” value is 22 nM; the “Inhibition of CD23 Expression … Donor 52” value amounted to 11.9 nM; the “Inhibition of CD23 Expression … Donor 53” value was determined as 18 nM; the “Inhibition of CD23 Expression … Donor 56” value came to 29.8 nM.

The next experiment has as its target T2, human IL-4Rα (interleukin 4 receptor subunit alpha) (human, UniProt P24394 26-232, limits assumed).
T2 sequence (looked up): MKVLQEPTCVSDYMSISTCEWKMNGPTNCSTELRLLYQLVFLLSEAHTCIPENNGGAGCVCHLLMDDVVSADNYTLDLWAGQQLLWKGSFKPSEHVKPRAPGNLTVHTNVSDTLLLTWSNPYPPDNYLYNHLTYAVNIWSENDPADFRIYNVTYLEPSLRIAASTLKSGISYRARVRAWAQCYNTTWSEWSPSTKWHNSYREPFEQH
Put plainly: SPR, Biacore 8K+ multi-cycle capture kinetics; antibody captured on goat anti-human polyclonal surface, human IL-4Rα as analyte, 25 C, 1:1 model. A general note: SPR reads the build-up and loss of mass on a sensor chip optically.
Regarding B1, the Kd amounted to 0.0249 nM, the koff turned out to be 2.19e-05 s⁻¹ and the kon was determined as 881000 M⁻¹ s⁻¹.

In the case of B2, the Kd was found to be 0.0333 nM, the koff was determined as 2.59e-05 s⁻¹ and the kon amounted to 778000 M⁻¹ s⁻¹.

As to B4, binding was characterised by a dissociation constant (Kd) of 0.0326 nM, the koff stood at 2.57e-05 s⁻¹ and the kon turned out to be 789000 M⁻¹ s⁻¹.

For the next experiment, the target named is T2, human IL-4Rα (interleukin 4 receptor …). As to the kind of experiment: SPR, Carterra LSA non-regenerative capture kinetics; antibody captured on goat anti-human polyclonal lawn, human IL-4Rα as analyte, 25 C, 1:1 model; average ± SD of technical replicates.
For B5, binding was characterised by a dissociation constant (Kd) of 0.3 nM.

In the case of B6, the Kd amounted to 2.37 nM. This Kd lies about 7.9-fold higher than the previous one.

In turn, B7 showed a Kd of 0.83 nM. Against the preceding molecule, the Kd is about 2.9-fold lower.

Molecule B8 gave a Kd of 50.7 nM.

Turning to B9, the Kd amounted to 0.85 nM.

As to B10, the Kd is at most 0.1 nM.

Take B11: the Kd was at most 0.09 nM.

B12 displayed a Kd of 0.56 nM.
